Starred links: 1 amine or outer side, 2 acyl side, 3 side chain; linkers in the order of their positions; H or OH if unused. Non-standard residues stand in square brackets, D forms with d. Groups on a side chain read outwards from the residue. No end group written: not given here. *: point of attachment. 2OEGgE‑C16DA = O=C(O)CCCCCCCCCCCCCCC(=O)N[C@@H](CCC(=O)NCCOCCOCC(=O)NCCOCCOCC(=O)*)C(=O)O; C15 diacid = O=C(O)CCCCCCCCCCCCCC(=O)*; γGlu = O=C(O)[C@H](CCC(=O)[*:2])N[*:1]; NMeY = CN[C@@H](Cc1ccc(O)cc1)C(=O)O; AEEA = NCCOCCOCC(=O)O; Aib = CC(C)(N)C(=O)O
B1: Compound 116 (peptide)
peptide: [NMeY][Aib]EGTFISDYSI[Aib]K([AEEA-AEEA-γGlu-C15 diacid])DR[Aib]AQ[Aib]DFVNWLLAQRPSSGAPPPS-NH2
modifications: N-terminus assumed
SMILES: CC[C@H](C)[C@H](NC(=O)[C@H](Cc1ccccc1)NC(=O)[C@@H](NC(=O)CNC(=O)[C@H](CCC(=O)O)NC(=O)C(C)(C)NC(=O)[C@H](Cc1ccc(O)cc1)NC)[C@@H](C)O)C(=O)N[C@@H](CO)C(=O)N[C@@H](CC(=O)O)C(=O)N[C@@H](Cc1ccc(O)cc1)C(=O)N[C@@H](CO)C(=O)N[C@H](C(=O)NC(C)(C)C(=O)N[C@@H](CCCCNC(=O)COCCOCCNC(=O)COCCOCCNC(=O)CC[C@H](NC(=O)CCCCCCCCCCCCCC(=O)O)C(=O)O)C(=O)N[C@@H](CC(=O)O)C(=O)N[C@@H](CCCNC(=N)N)C(=O)NC(C)(C)C(=O)N[C@@H](C)C(=O)N[C@@H](CCC(N)=O)C(=O)NC(C)(C)C(=O)N[C@@H](CC(=O)O)C(=O)N[C@@H](Cc1ccccc1)C(=O)N[C@H](C(=O)N[C@@H](CC(N)=O)C(=O)N[C@@H](Cc1c[nH]c2ccccc12)C(=O)N[C@@H](CC(C)C)C(=O)N[C@@H](CC(C)C)C(=O)N[C@@H](C)C(=O)N[C@@H](CCC(N)=O)C(=O)N[C@@H](CCCNC(=N)N)C(=O)N1CCC[C@H]1C(=O)N[C@@H](CO)C(=O)N[C@@H](CO)C(=O)NCC(=O)N[C@@H](C)C(=O)N1CCC[C@H]1C(=O)N1CCC[C@H]1C(=O)N1CCC[C@H]1C(=O)N[C@@H](CO)C(N)=O)C(C)C)[C@@H](C)CC
B2: Compound 112 (peptide)
peptide: [NMeY][Aib]EGTFISDYSI[Aib]LDR[Aib]AQ[Aib]K([AEEA-γGlu-γGlu-γGlu-C15 diacid])FVNWLLAQK-NH2
modifications: N-terminus assumed
SMILES: CC[C@H](C)[C@H](NC(=O)[C@H](Cc1ccccc1)NC(=O)[C@@H](NC(=O)CNC(=O)[C@H](CCC(=O)O)NC(=O)C(C)(C)NC(=O)[C@H](Cc1ccc(O)cc1)NC)[C@@H](C)O)C(=O)N[C@@H](CO)C(=O)N[C@@H](CC(=O)O)C(=O)N[C@@H](Cc1ccc(O)cc1)C(=O)N[C@@H](CO)C(=O)N[C@H](C(=O)NC(C)(C)C(=O)N[C@@H](CC(C)C)C(=O)N[C@@H](CC(=O)O)C(=O)N[C@@H](CCCNC(=N)N)C(=O)NC(C)(C)C(=O)N[C@@H](C)C(=O)N[C@@H](CCC(N)=O)C(=O)NC(C)(C)C(=O)N[C@@H](CCCCNC(=O)COCCOCCNC(=O)CC[C@H](NC(=O)CC[C@H](NC(=O)CC[C@H](NC(=O)CCCCCCCCCCCCCC(=O)O)C(=O)O)C(=O)O)C(=O)O)C(=O)N[C@@H](Cc1ccccc1)C(=O)N[C@H](C(=O)N[C@@H](CC(N)=O)C(=O)N[C@@H](Cc1c[nH]c2ccccc12)C(=O)N[C@@H](CC(C)C)C(=O)N[C@@H](CC(C)C)C(=O)N[C@@H](C)C(=O)N[C@@H](CCC(N)=O)C(=O)N[C@@H](CCCCN)C(N)=O)C(C)C)[C@@H](C)CC
B3: Compound 115 (peptide)
peptide: [NMeY][Aib]EGTFISDYSI[Aib]K([AEEA-γGlu-γGlu-γGlu-C15 diacid])DR[Aib]AQ[Aib]NFVNWLLAQR-NH2
modifications: N-terminus assumed
SMILES: CC[C@H](C)[C@H](NC(=O)[C@H](Cc1ccccc1)NC(=O)[C@@H](NC(=O)CNC(=O)[C@H](CCC(=O)O)NC(=O)C(C)(C)NC(=O)[C@H](Cc1ccc(O)cc1)NC)[C@@H](C)O)C(=O)N[C@@H](CO)C(=O)N[C@@H](CC(=O)O)C(=O)N[C@@H](Cc1ccc(O)cc1)C(=O)N[C@@H](CO)C(=O)N[C@H](C(=O)NC(C)(C)C(=O)N[C@@H](CCCCNC(=O)COCCOCCNC(=O)CC[C@H](NC(=O)CC[C@H](NC(=O)CC[C@H](NC(=O)CCCCCCCCCCCCCC(=O)O)C(=O)O)C(=O)O)C(=O)O)C(=O)N[C@@H](CC(=O)O)C(=O)N[C@@H](CCCNC(=N)N)C(=O)NC(C)(C)C(=O)N[C@@H](C)C(=O)N[C@@H](CCC(N)=O)C(=O)NC(C)(C)C(=O)N[C@@H](CC(N)=O)C(=O)N[C@@H](Cc1ccccc1)C(=O)N[C@H](C(=O)N[C@@H](CC(N)=O)C(=O)N[C@@H](Cc1c[nH]c2ccccc12)C(=O)N[C@@H](CC(C)C)C(=O)N[C@@H](CC(C)C)C(=O)N[C@@H](C)C(=O)N[C@@H](CCC(N)=O)C(=O)N[C@@H](CCCNC(=N)N)C(N)=O)C(C)C)[C@@H](C)CC
B4: Compound 118 (peptide)
peptide: [NMeY][Aib]EGTFISDYSI[Aib]LDR[Aib]K([AEEA-AEEA-γGlu-C15 diacid])Q[Aib]DFVNWLLAQR-NH2
modifications: N-terminus assumed
SMILES: CC[C@H](C)[C@H](NC(=O)[C@H](Cc1ccccc1)NC(=O)[C@@H](NC(=O)CNC(=O)[C@H](CCC(=O)O)NC(=O)C(C)(C)NC(=O)[C@H](Cc1ccc(O)cc1)NC)[C@@H](C)O)C(=O)N[C@@H](CO)C(=O)N[C@@H](CC(=O)O)C(=O)N[C@@H](Cc1ccc(O)cc1)C(=O)N[C@@H](CO)C(=O)N[C@H](C(=O)NC(C)(C)C(=O)N[C@@H](CC(C)C)C(=O)N[C@@H](CC(=O)O)C(=O)N[C@@H](CCCNC(=N)N)C(=O)NC(C)(C)C(=O)N[C@@H](CCCCNC(=O)COCCOCCNC(=O)COCCOCCNC(=O)CC[C@H](NC(=O)CCCCCCCCCCCCCC(=O)O)C(=O)O)C(=O)N[C@@H](CCC(N)=O)C(=O)NC(C)(C)C(=O)N[C@@H](CC(=O)O)C(=O)N[C@@H](Cc1ccccc1)C(=O)N[C@H](C(=O)N[C@@H](CC(N)=O)C(=O)N[C@@H](Cc1c[nH]c2ccccc12)C(=O)N[C@@H](CC(C)C)C(=O)N[C@@H](CC(C)C)C(=O)N[C@@H](C)C(=O)N[C@@H](CCC(N)=O)C(=O)N[C@@H](CCCNC(=N)N)C(N)=O)C(C)C)[C@@H](C)CC

Legend:
[1] = target: T1, full-length human GIPR with an N-terminal FLAG tag (human, UniProt P48546 22-466); experiment: cell-based or functional assay
T1 sequence (looked up): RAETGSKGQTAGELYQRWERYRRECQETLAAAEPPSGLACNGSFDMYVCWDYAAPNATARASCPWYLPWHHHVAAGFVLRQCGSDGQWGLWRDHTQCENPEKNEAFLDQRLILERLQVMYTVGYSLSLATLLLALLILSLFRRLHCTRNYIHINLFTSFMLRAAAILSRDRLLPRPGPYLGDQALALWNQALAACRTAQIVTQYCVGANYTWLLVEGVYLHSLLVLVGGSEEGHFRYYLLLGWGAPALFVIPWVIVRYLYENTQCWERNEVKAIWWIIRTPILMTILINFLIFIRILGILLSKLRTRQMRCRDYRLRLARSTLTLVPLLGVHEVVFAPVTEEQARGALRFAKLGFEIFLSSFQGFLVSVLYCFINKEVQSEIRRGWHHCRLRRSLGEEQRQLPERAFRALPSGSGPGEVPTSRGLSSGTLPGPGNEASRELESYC

[2] = target: full-length human GLP-1R with an N-terminal FLAG tag (human, UniProt P43220 24-463); experiment: cell-based or functional assay

Row | Binder | Human GIPR cAMP, HEK293T EC50 [1] [nM] | Human GLP1R cAMP HEK293T EC50 [2] [nM]
1 | [NMeY][Aib]EGTFISDYSI[Aib]LDR[Aib]AQ[Aib]KFVNWLLAQRGGGGS-NH2 (not fully specified (residue 21)) [Compound 114] | 0.0007 | 115
2 | [NMeY][Aib]EGTFISDYSI[Aib]LDRKAQ[Aib]NFVNWLLAQRPSSGAPPPS-NH2 (not fully specified (residue 17)) [Compound 122] | 0.0004 | 20.4
3 | [NMeY][Aib]EGTFISDYSIAK(2OEGgE‑C16DA)DR[Aib]AQ[Aib]NFVNWLLAQK [Compound 11] | 0.0003 | 145
4 | B1 | 0.0003 | 339
5 | B2 | 0.0004 | 12
6 | [NMeY][Aib]EGTFISDYSIALDR[Aib]KQ[Aib]NFVNWLLAQSPSSGAPPPS-NH2 (not fully specified (residue 18, N-terminus)) [Compound 119] | 0.0005 | 1000
7 | [NMeY][Aib]EGTFISDYSIALDR[Aib]AQ[Aib]KFVNWLLAQR-NH2 (not fully specified (residue 21)) [Compound 121] | 0.0003 | 5.5
8 | B3 | 0.0005 | 437
9 | [NMeY][Aib]EGTFISDYSI[Aib]LDR[Aib]KQ[Aib]DFVNWLLAQR-NH2 (not fully specified (residue 18)) [Compound 117] | 0.0006 | 1000
10 | B4 | 0.0009 | 525
11 | [NMeY][Aib]EGTFISDYSI[Aib]KDR[Aib]AQ[Aib]NFVNWLLAQRPSSKKKKKK-NH2 (not fully specified (residue 14, N-terminus)) [Compound 124] | 0.004 | 126
12 | [NMeY][Aib]EGTFISDYSI[Aib]LDR[Aib]AQ[Aib]NFVNWLLAQKPSSGAPPPS-NH2 (not fully specified (residue 30)) [Compound 123] | 0.0004 | 22.9

Source: US20220227830A1, “QD DOSING OF GIP RECEPTOR AGONIST PEPTIDE COMPOUNDS AND USES THEREOF” (Takeda Pharmaceutical Company Limited, priority 2020, published 2022)
